The values below come from patent US20110263454A1, “Methods of Identifying Functional Characteristics of Promoters, Transcription Modifying Proteins and Transcription Modulating Agents” (Salk Institute for Biological Studies, priority 2008, published 2011).

The test system of one assay is mLeptin promoter. In words: NHR-promoter luciferase screen, mLeptin promoter. To be noted: for Luc. act., normalized to lacZ / Normalized Luc. act., normalized to control: Table 7, mLeptin; for Results of assays of transcription factor (+/- ligand) with mLeptin: Table 6d, luciferase activity relative to control (control = 1.00). It is filed as cell-based, mouse. A digest of the protocol: (§1)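 CV-1 cells were co-transfected with 50 ng NHR (homodimer or NHR/RXR heterodimer), 100 ng promoter-luciferase construct and 50 ng LacZ. Luciferase was normalized to LacZ and to a no-NHR/no-ligand control.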

The subject of the next assay is hCYP3A4 promoter. In words: NHR-promoter luciferase screen, hCYP3A4 promoter. Conditions: for Luc. act., normalized to lacZ / Normalized Luc. act., normalized to control: CYP3A4 promoter, HR/ligand component; for hCYP3A4 promoter reporter activity: transcription factor +/- ligand, control = 1.00. It is filed as cell-based, human. A digest of the protocol:
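Luciferase reporter read-out after co-expression in CV-1 cells of V5H6-tagged receptor (alone or with RXR), the promoter construct and LacZ. Values are luciferase/LacZ relative to a control lacking NHR or ligand; orphan receptors tested ligand-free.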

In a further assay the test system is mCAR promoter. In words: NHR-promoter luciferase screen, mCAR promoter. It is filed as cell-based, mouse. Conditions: for luciferase activity normalized to lacZ activity and to a control, mCAR: mCAR promoter-luciferase, CV-1 cells, NHR +/- ligand, control = 1.00; for Luc. act., normalized to lacZ / Normalized Luc. act., normalized to control: mCAR promoter, HR/ligand component. A digest of the protocol:
as §1

In a further assay the test system is mPOMC promoter. The assay can be described thus: NHR-promoter luciferase screen, mPOMC promoter. Conditions: for Results of assays of transcription factor (+/- ligand) with mPOMC: Table 6d, luciferase activity relative to control (control = 1.00); for Luc. act., normalized to lacZ / Normalized Luc. act., normalized to control: mPOMC promoter, HR component with or without ligand; for Normalized Luc. act., normalized to control: relative to control. Format: cell-based, mouse. A digest of the protocol:
as §1

Another assay has as its system hIRF7 promoter. In words: NHR-promoter luciferase screen, hIRF7 promoter. Conditions: for Normalized Luc. act., normalized to control / Luc. act., normalized to lacZ: IRF7 promoter reporter; for Normalized Luc. act., normalized to control: HR without or with its ligand, relative to control; for Luc. act., normalized to lacZ: hormone receptor (HR) without or with its ligand; for hIRF7 promoter reporter activity: transcription factor +/- ligand, control = 1.00. Format: cell-based, human. A digest of the protocol:
as §1

The next assay has as its system mUCP2 promoter. In words: NHR-promoter luciferase screen, mUCP2 promoter. Format: cell-based, mouse. To be noted: for Luc. act., normalized to lacZ / Normalized Luc. act., normalized to control: mUCP2 promoter reporter, co-transfected HR, with or without its ligand; for Normalized Luc. act., normalized to control: relative to control; for luciferase activity normalized to lacZ activity and to a control, mUCP2: mUCP2 promoter-luciferase, CV-1 cells, NHR +/- ligand, control = 1.00. A digest of the protocol:
as §1

B1: Erb: Estrogen Receptor β (NR3A2, ERb), cDNA driver (protein, UniProt Q92731 1-530, looked up)
Estrogen receptor beta: MDIKNSPSSLNSPSSYNCSQSILPLEHGSIYIPSSYVDSHHEYPAMTFYSPAVMNYSIPSNVTNLEGGPGRQTTSPNVLWPTPGHLSPLVVHRQLSHLYAEPQKSPWCEARSLEHTLPVNRETLKRKVSGNRCASPVTGPGSKRDAHFCAVCSDYASGYHYGVWSCEGCKAFFKRSIQGHNDYICPATNQCTIDKNRRKSCQACRLRKCYEVGMVKCGSRRERCGYRLVRRQRSADEQLHCAGKAKRSGGHAPRVRELLLDALSPEQLVLTLLEAEPPHVLISRPSAPFTEASMMMSLTKLADKELVHMISWAKKIPGFVELSLFDQVRLLESCWMEVLMMGLMWRSIDHPGKLIFAPDLVLDRDEGKCVEGILEIFDMLLATTSRFRELKLQHKEYLCVKAMILLNSSMYPLVTATQDADSSRKLAHLLNAVTDALVWVIAKSGISSQQQSMRLANLLMLLSHVRHASNKGMEHLLNMKCKNVVPVYDLLLEMLNAHVLRGCKSSITGSECSPAEDSKSKEGSQNPQSQ
As for B1, in the assay on mLeptin promoter, the “Luc. act., normalized to lacZ” value is 2.5; the “Normalized Luc. act., normalized to control” value was 0.9; the “Results of assays of transcription factor (+/- ligand) with mLeptin” value was determined as 0.86. Further, in the assay with hCYP3A4 promoter, the “Luc. act., normalized to lacZ” value is reported as 6.0; the “Normalized Luc. act., normalized to control” value came out at 1.3; the “hCYP3A4 promoter reporter activity” value came to 1.35. Moreover, in the assay with mCAR promoter, the “luciferase activity normalized to lacZ activity and to a control, mCAR” value is given as 1.18; the “Luc. act., normalized to lacZ” value is listed as 44.8; the “Normalized Luc. act., normalized to control” value was determined as 1.2. In the assay on mPOMC promoter, the “Results of assays of transcription factor (+/- ligand) with mPOMC” value is reported as 1.00; the “Luc. act., normalized to lacZ” value amounted to 69.1; the “Normalized Luc. act., normalized to control” value amounted to 1.0. For the same molecule, in the assay with hIRF7 promoter, the “Normalized Luc. act., normalized to control” value is listed as 1.4; the “Luc. act., normalized to lacZ” value worked out at 37.5; the “hIRF7 promoter reporter activity” value was 1.42. Besides, in the assay with mUCP2 promoter, the “Luc. act., normalized to lacZ” value came out at 114.4; the “Normalized Luc. act., normalized to control” value is listed as 1.0; the “luciferase activity normalized to lacZ activity and to a control, mUCP2” value is on record as 1.04.

B2: TR4: Testicular Orphan Nuclear Receptor 4 (NR2C2), cDNA driver (protein, UniProt P49116 1-596, looked up)
Nuclear receptor subfamily 2 …: MTSPSPRIQIISTDSAVASPQRIQIVTDQQTGQKIQIVTAVDASGSPKQQFILTSPDGAGTGKVILASPETSSAKQLIFTTSDNLVPGRIQIVTDSASVERLLGKTDVQRPQVVEYCVVCGDKASGRHYGAVSCEGCKGFFKRSVRKNLTYSCRSNQDCIINKHHRNRCQFCRLKKCLEMGMKMESVQSERKPFDVQREKPSNCAASTEKIYIRKDLRSPLIATPTFVADKDGARQTGLLDPGMLVNIQQPLIREDGTVLLATDSKAETSQGALGTLANVVTSLANLSESLNNGDTSEIQPEDQSASEITRAFDTLAKALNTTDSSSSPSLADGIDTSGGGSIHVISRDQSTPIIEVEGPLLSDTHVTFKLTMPSPMPEYLNVHYICESASRLLFLSMHWARSIPAFQALGQDCNTSLVRACWNELFTLGLAQCAQVMSLSTILAAIVNHLQNSIQEDKLSGDRIKQVMEHIWKLQEFCNSMAKLDIDGYEYAYLKAIVLFSPDHPGLTSTSQIEKFQEKAQMELQDYVQKTYSEDTYRLARILVRLPALRLMSSNITEELFFTGLIGNVSIDSIIPYILKMETAEYNGQITGASL
For B2, in the assay with mLeptin promoter, the “Luc. act., normalized to lacZ” value is 7.5; the “Normalized Luc. act., normalized to control” value is listed as 2.6; the “Results of assays of transcription factor (+/- ligand) with mLeptin” value is on record as 2.56. Besides, the “luciferase/LacZ, mLeptin (selected results)” value in the assay with mLeptin promoter (mLeptin promoter-luciferase, NHR +/- ligand, control = 1.0) is recorded as 2.6. Also, in the assay with hCYP3A4 promoter, the “Luc. act., normalized to lacZ” value is given as 7.7; the “Normalized Luc. act., normalized to control” value was 1.7; the “hCYP3A4 promoter reporter activity” value is given as 1.74. Further, in the assay on mCAR promoter, the “luciferase activity normalized to lacZ activity and to a control, mCAR” value is given as 2.52; the “Luc. act., normalized to lacZ” value turned out to be 96.2; the “Normalized Luc. act., normalized to control” value is on record as 2.5. Also, in the assay on mPOMC promoter, the “Results of assays of transcription factor (+/- ligand) with mPOMC” value turned out to be 3.75; the “Luc. act., normalized to lacZ” value was found to be 258.7; the “Normalized Luc. act., normalized to control” value is on record as 3.8. In the assay with hIRF7 promoter, the “Normalized Luc. act., normalized to control” value amounted to 1.9; the “Luc. act., normalized to lacZ” value was 48.8; the “hIRF7 promoter reporter activity” value was 1.85. Also, in the assay with mUCP2 promoter, the “Luc. act., normalized to lacZ” value is given as 199.0; the “Normalized Luc. act., normalized to control” value was 1.8; the “luciferase activity normalized to lacZ activity and to a control, mUCP2” value turned out to be 1.81.
